Results as given in patent US20190241648A1 (STATEN BIOTECHNOLOGY B V, published 2019).
Ends that are not written are not given here.

Legend:
Experiment in all cases: peptide microarray
[1] = target: T1, ApoC3 peptide … G46T (human, thioether (positions not given here); also: cyclic constrained)
T1 peptide: ARGWVTDTFSSLK
Outline: (§1)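 Peptide microarrays of ApoC3-derived peptides incubated with antibody samples, then stained with goat anti-human IgG (Fc) DyLight680 (1:5000) and anti-HA DyLight800 (1:2000) control. Read-out by fluorescence scanning at intensities 7/7 (red/green); a secondary-only pre-stain checked background, HA frame peptides served as quality control.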

[2] = target: ApoC3 peptide … S48I (human, cyclic constrained)
Outline: as §1

[3] = target: T2, ApoC3 peptide … T44I (human, not fully specified (bridges); also: cyclic constrained)
T2 peptide: ARGWVIDGFSSLK
Outline: as §1

[4] = target: T3, ApoC3 peptide … G41K (human, also: cyclic constrained)
T3 peptide: ARKWVTDGFSSLK
Outline: as §1

[5] = target: T4, ApoC3 peptide … V43P (human, not fully specified (bridges); also: cyclic constrained)
T4 peptide: ARGWPTDGFSSLK
Outline: as §1

[6] = target: T5, ApoC3 peptide … D45P (human, cyclic constrained)
T5 peptide: ARGWVTPGFSSLK
Outline: as §1

[7] = target: T6, ApoC3 peptide … G46P (human, not fully specified (bridges); also: cyclic constrained)
T6 peptide: ARGWVTDPFSSLK
Outline: as §1

[8] = target: T7, ApoC3 peptide … G41A (human, also: cyclic constrained)
T7 peptide: ARAWVTDGFSSLK
Outline: as §1

[9] = target: T8, ApoC3 peptide … L50R (human, not fully specified (bridges); also: cyclic constrained)
T8 peptide: ARGWVTDGFSSRK
Outline: as §1

[10] = target: T9, ApoC3 peptide … F47A (human, not fully specified (bridges); also: cyclic constrained)
T9 peptide: ARGWVTDGASSLK
Outline: as §1

[11] = target: ApoC3 peptide … S48W (human, cyclic constrained)
Outline: as §1

[12] = target: T10, ApoC3 peptide … G46F (human, not fully specified (bridges); also: cyclic constrained)
T10 peptide: ARGWVTDFFSSLK
Outline: as §1

[13] = target: T11, ApoC3 peptide … V43M (human, not fully specified; cyclic constrained)
T11 peptide: ARGWMTDGFSSLK
Outline: as §1

[14] = target: T12, ApoC3 peptide … G46H (human, not fully specified (bridges); also: cyclic constrained)
T12 peptide: ARGWVTDHFSSLK
Outline: as §1

[15] = target: T13, ApoC3 peptide … D45L (human, cyclic constrained)
T13 peptide: ARGWVTLGFSSLK
Outline: as §1

[16] = target: T14, ApoC3 peptide … A39C (human, cyclic constrained)
T14 peptide: CRGWVTDGFSSLK
Outline: as §1

[17] = target: T15, ApoC3 peptide … R40N (human, not fully specified (bridges); also: cyclic constrained)
T15 peptide: ANGWVTDGFSSLK
Outline: as §1

[18] = target: T16, ApoC3 peptide … D45S (human, cyclic constrained)
T16 peptide: ARGWVTSGFSSLK
Outline: as §1

[19] = target: T17, ApoC3 peptide … V43F (human, not fully specified; cyclic constrained)
T17 peptide: ARGWFTDGFSSLK
Outline: as §1

[20] = target: T18, ApoC3 peptide … G46N (human, not fully specified (bridges); also: cyclic constrained)
T18 peptide: ARGWVTDNFSSLK
Outline: as §1

[21] = target: T19, ApoC3 peptide … K51F (human, thioether (positions not given here); also: cyclic constrained)
T19 peptide: ARGWVTDGFSSLF
Outline: as §1

[22] = target: T20, ApoC3 peptide … V43I (human, not fully specified; cyclic constrained)
T20 peptide: ARGWITDGFSSLK
Outline: as §1

[23] = target: T21, ApoC3 peptide … D45R (human, cyclic constrained)
T21 peptide: ARGWVTRGFSSLK
Outline: as §1

[24] = target: T22, ApoC3 peptide … G41Q (human, also: cyclic constrained)
T22 peptide: ARQWVTDGFSSLK
Outline: as §1

[25] = target: T23, ApoC3 peptide … T44S (human, not fully specified (bridges); also: cyclic constrained)
T23 peptide: ARGWVSDGFSSLK
Outline: as §1

[26] = target: T24, ApoC3 peptide … S49M (human, cyclic constrained)
T24 peptide: ARGWVTDGFSMLK
Outline: as §1

[27] = target: T25, ApoC3 peptide … W42R (human, not fully specified (bridges); also: cyclic constrained)
T25 peptide: ARGRVTDGFSSLK
Outline: as §1

[28] = target: T26, ApoC3 peptide … D45K (human, cyclic constrained)
T26 peptide: ARGWVTKGFSSLK
Outline: as §1

[29] = target: T27, ApoC3 peptide … V43G (human, not fully specified; cyclic constrained)
T27 peptide: ARGWGTDGFSSLK
Outline: as §1

[30] = target: T28, ApoC3 peptide … K51G (human, thioether (positions not given here); also: cyclic constrained)
T28 peptide: ARGWVTDGFSSLG
Outline: as §1

[31] = target: T29, ApoC3 peptide … A39R (human, not fully specified (bridges); also: cyclic constrained)
T29 peptide: RRGWVTDGFSSLK
Outline: as §1

% of binding to wild-type peptide [1]: 0%
% of binding to wild-type peptide [2]: 23.6%
% of binding to wild-type peptide [3]: 1.86%
% of binding to wild-type peptide [4]: 18%
% of binding to wild-type peptide [5]: 1.86%
% of binding to wild-type peptide [6]: 0%
% of binding to wild-type peptide [7]: 0%
% of binding to wild-type peptide [8]: 7.01%
% of binding to wild-type peptide [9]: 0%
% of binding to wild-type peptide [10]: 0%
% of binding to wild-type peptide [11]: 3.49%
% of binding to wild-type peptide [12]: 0.86%
% of binding to wild-type peptide [13]: 20.9%
% of binding to wild-type peptide [14]: 1.81%
% of binding to wild-type peptide [15]: 17.1%
% of binding to wild-type peptide [16]: 77.5%
% of binding to wild-type peptide [17]: 64.8%
% of binding to wild-type peptide [18]: 20.8%
% of binding to wild-type peptide [19]: 68.9%
% of binding to wild-type peptide [20]: 10.4%
% of binding to wild-type peptide [21]: 6.24%
% of binding to wild-type peptide [22]: 41%
% of binding to wild-type peptide [23]: 20.1%
% of binding to wild-type peptide [24]: 27.1%
% of binding to wild-type peptide [25]: 1.12%
% of binding to wild-type peptide [26]: 1.86%
% of binding to wild-type peptide [27]: 141%
% of binding to wild-type peptide [28]: 39.4%
% of binding to wild-type peptide [29]: 0.12%
% of binding to wild-type peptide [30]: 5.77%
% of binding to wild-type peptide [31]: 89.4%
B1: anti-ApoC3 antibody 14C7 (antibody, V domains shown)
VH: QVQVQESGPGLVKPSQTLSLTCTVSGGSITTNSYYWSWIRQPPGKGLEWMGAIDYSGDTYYSPSLKSRTSISRDTSKNQFTLQLTSVTPEDTAVYYCVSRIPTGEYWGQGTQVTVSS
VL: QTVVTQEPSLSVSPGGTVTLTCGLNSGSVTSSNYPDWYQQTPGQAPRLLIYNTNSRHSGVPSRFSGSISGNKAALTITGAQPEDEADYYCALYMGSDSVVFGGGTHLTVL
notes: it was detected with goat anti-human IgG (Fc); also called mAb 14C7; llama antibody 14C7
